Measurements taken from patent US20200188528A1 (FRED HUTCHINSON CANCER RESEARCH CENTER, published 2020).

Target: BACE1 (beta-secretase, beta-site APP cleaving enzyme), endogenous enzyme of HEK/hAPP cells (human, UniProt P56817 46-501)
Experiment: cell-based or functional assay

Sequence of BACE1 (beta-secretase, beta-site APP cleaving enzyme), endogenous enzyme of HEK/hAPP cells (P56817 46-501): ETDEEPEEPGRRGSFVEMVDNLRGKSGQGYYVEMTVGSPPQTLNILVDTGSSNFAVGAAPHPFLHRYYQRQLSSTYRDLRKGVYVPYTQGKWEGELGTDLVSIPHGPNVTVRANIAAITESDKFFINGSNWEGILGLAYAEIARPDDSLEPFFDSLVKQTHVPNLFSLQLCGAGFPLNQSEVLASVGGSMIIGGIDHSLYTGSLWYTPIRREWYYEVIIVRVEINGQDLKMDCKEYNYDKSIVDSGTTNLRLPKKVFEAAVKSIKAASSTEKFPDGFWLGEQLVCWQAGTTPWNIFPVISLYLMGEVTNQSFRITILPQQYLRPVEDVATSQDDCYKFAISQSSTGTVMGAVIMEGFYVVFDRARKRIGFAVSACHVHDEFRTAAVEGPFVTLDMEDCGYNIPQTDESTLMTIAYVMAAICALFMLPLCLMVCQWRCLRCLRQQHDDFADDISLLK

B1: anti-BACE1 peptide-antibody complex (peptide of SEQ ID NO: 1 fused to the anti-BACE1 antibody heavy chain, SEQ ID NO: 429, assembled with the anti-BACE1 … (antibody)
heavy: not shown
light: DIQMTQSPSSLSASVGDRVTITCRASQDVSTAVAWYQQKPGKAPKLLIYSASFLYSGVPSRFSGSGSGTDFTLTISSLQPEDFATYYCQQFPTYLPTFGQGTKVEIKRTVAAPSVFIFPPSDEQLKSGTASVVCLLNNFYPREAKVQWKVDNALQSGNSQESVTEQDSKDSTYSLSSTLTLSKADYEKHKVYACEVTHQGLSSPVTKSFNRGEC
- IC50 (read off the curve), Aβ1-40 secretion from HEK/hAPP cells (HTRF, Percent of Cntl): ~10 nM

B2: anti-BACE1 antibody comprising an anti-BACE1 antibody heavy chain of SEQ ID NO: 427 and an anti-BACE1 antibody light chain of SEQ ID NO: 428 (antibody, human IgG1, kappa)
heavy: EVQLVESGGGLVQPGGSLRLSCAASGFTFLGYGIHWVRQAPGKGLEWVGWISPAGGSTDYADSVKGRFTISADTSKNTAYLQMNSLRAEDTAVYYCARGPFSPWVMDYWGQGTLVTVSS
light: B1 light
- IC50 (read off the curve), Aβ1-40 secretion from HEK/hAPP cells (HTRF, Percent of Cntl): ~10 nM
